Source: patent US9539367B2, “Gallium inhibits biofilm formation” (priority 2003, dated 2017)

B1: lactoferrin: Fe-binding protein (protein, UniProt P02788 20-710, looked up)
Lactotransferrin: GRRRSVQWCAVSQPEATKCFQWQRNMRKVRGPPVSCIKRDSPIQCIQAIAENRADAVTLDGGFIYEAGLAPYKLRPVAAEVYGTERQPRTHYYAVAVVKKGGSFQLNELQGLKSCHTGLRRTAGWNVPIGTLRPFLNWTGPPEPIEAAVARFFSASCVPGADKGQFPNLCRLCAGTGENKCAFSSQEPYFSYSGAFKCLRDGAGDVAFIRESTVFEDLSDEAERDEYELLCPDNTRKPVDKFKDCHLARVPSHAVVARSVNGKEDAIWNLLRQAQEKFGKDKSPKFQLFGSPSGQKDLLFKDSAIGFSRVPPRIDSGLYLGSGYFTAIQNLRKSEEEVAARRARVVWCAVGEQELRKCNQWSGLSEGSVTCSSASTTEDCIALVLKGEADAMSLDGGYVYTAGKCGLVPVLAENYKSQQSSDPDPNCVDRPVEGYLAVAVVRRSDTSLTWNSVKGKKSCHTAVDRTAGWNIPMGLLFNQTGSCKFDEYFSQSCAPGSDPRSNLCALCIGDEQGENKCVPNSNERYYGYTGAFRCLAENAGDVAFVKDVTVLQNTDGNNNEAWAKDLKLADFALLCLDGKRKPVTEARSCHLAMAPNHAVVSRMDKVERLKQVLLHQQAKFGRNGSDCPDKFCLFQSETKNLLFNDNTECLARLHGKTTYEKYLGPQYVAGITNLKKCSTSPLLEACEFLRK
B2: conalbumin: Fe chelator (protein, UniProt P02789 20-705, looked up)
Ovotransferrin: APPKSVIRWCTISSPEEKKCNNLRDLTQQERISLTCVQKATYLDCIKAIANNEADAISLDGGQAFEAGLAPYKLKPIAAEVYEHTEGSTTSYYAVAVVKKGTEFTVNDLQGKTSCHTGLGRSAGWNIPIGTLLHRGAIEWEGIESGSVEQAVAKFFSASCVPGATIEQKLCRQCKGDPKTKCARNAPYSGYSGAFHCLKDGKGDVAFVKHTTVNENAPDQKDEYELLCLDGSRQPVDNYKTCNWARVAAHAVVARDDNKVEDIWSFLSKAQSDFGVDTKSDFHLFGPPGKKDPVLKDLLFKDSAIMLKRVPSLMDSQLYLGFEYYSAIQSMRKDQLTPSPRENRIQWCAVGKDEKSKCDRWSVVSNGDVECTVVDETKDCIIKIMKGEADAVALDGGLVYTAGVCGLVPVMAERYDDESQCSKTDERPASYFAVAVARKDSNVNWNNLKGKKSCHTAVGRTAGWVIPMGLIHNRTGTCNFDEYFSEGCAPGSPPNSRLCQLCQGSGGIPPEKCVASSHEKYFGYTGALRCLVEKGDVAFIQHSTVEENTGGKNKADWAKNLQMDDFELLCTDGRRANVMDYRECNLAEVPTHAVVVRPEKANKIRDLLERQEKRFGVNGSEKSKFMMFESQNKDLLFKDLTKCLFKVREGTTYKEFLGDKFYTVISSLKTCNPSDILQMCSFLEGK

Tested on: P. aeruginosa biofilm
Assay: Biofilm formation of GFP-labeled P. aeruginosa in continuous culture flow cells
Assay type: cell-based
Conditions: for effect on P. aeruginosa biofilm formation: Fe chelation, concentrations that did not alter growth (lactoferrin 20 μg ml)

Row | Molecule | effect on P. aeruginosa biofilm formation | effect on established biofilm (once the biofilm was established)
1 | B1 | profoundly inhibited biofilm formation | unable to alter the biofilm
2 | B2 | duplicated | –
